Assay [1] concerns the target gp120, the major envelope glycoprotein of HIV-I (HIV-1). Description: saturation binding of 125I-gp120 in solution, immunoprecipitation with OKT4, Scatchard analysis.
Assay [2] addresses HIV-1 strain HTLV-IIIB (virus) (HIV-1 strain HTLV-IIIB). Description: cell-based or functional assay.
The target of assay [3] is gp120, the major envelope glycoprotein of HIV-I (HIV-1). Description: gp120 binding by the method of Smith et al., Science 238:1704-07 (1987).
In assay [4] the target is Fcγ receptor (determined with U937 cells) (Homo sapiens (Human)) (UniProt P12314). The assay can be described thus: binding to Fcγ receptor on U937 cells, method of Anderson et al., J. Immunol. 125:2735-2741 (1980).

“And” between values parts separate entries of the source, which are not always exact repeats. Identical values can stand only once.

Sequence of UniProt P12314 (P12314 16-374 limits assumed, form in doubt): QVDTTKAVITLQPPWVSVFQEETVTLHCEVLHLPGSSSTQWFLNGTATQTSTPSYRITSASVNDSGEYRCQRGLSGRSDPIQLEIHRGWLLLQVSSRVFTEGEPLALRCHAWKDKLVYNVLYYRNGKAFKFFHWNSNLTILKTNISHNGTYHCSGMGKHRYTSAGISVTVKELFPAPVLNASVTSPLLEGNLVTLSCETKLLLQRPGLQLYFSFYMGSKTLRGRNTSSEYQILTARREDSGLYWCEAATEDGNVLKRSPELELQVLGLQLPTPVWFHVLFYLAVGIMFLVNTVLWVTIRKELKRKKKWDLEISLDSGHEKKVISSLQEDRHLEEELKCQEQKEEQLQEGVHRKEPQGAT

Take “CD4T (CD4 fused after residue 368 of mature CD4 to 9 residues coded by pBR322 sequence) (from UniProt P01730 27-393) (receptor)”: the Kd (in general, the free concentration of one partner at which half of the binding sites on the other are occupied at equilibrium, for simple one-to-one binding) in assay [1] amounted to 0.83 nM. Moreover, in assay [2], the Indirect immunofluorescence (% positive cells), inhibitor supernatant 1:4 (% positive cells) is 18 and 16.1; the Indirect immunofluorescence (% positive cells), inhibitor supernatant undil. (% positive cells) was 0.4 and 0.8; the Reverse transcriptase (cpm/ml × 10^5), inhibitor supernatant 1:4 was 372000 cpm/ml and 594000 cpm/ml; the Reverse transcriptase (cpm/ml × 10^5), inhibitor supernatant undil. was 11000 cpm/ml and 15000 cpm/ml.

In the case of “CD42γ1 immunoadheson (CD4 to glutamine residue 180 fused to the constant region of human immunoglobulin γ1) (Fc fusion)”, the Kd in assay [3] turned out to be 1.4 nM; in assay [4] it was 3.01 nM.

As for “CD44γ1 immunoadheson (CD4 to serine residue 366 fused to the constant region of human immunoglobulin γ1) (Fc fusion)”, the equilibrium dissociation constant (Kd) is 1.2 nM in assay [3] and 2.83 nM in assay [4].

bulk human IgG1 (antibody): in assay [4], the equilibrium dissociation constant (Kd) amounted to 3.52 nM.

Turning to “gDCD4T (signal peptide and first 27 residues of mature HSV type I gD glycoprotein fused to mature CD4T) (receptor)”, in assay [1], the Kd came out at 0.72 nM. In addition, in assay [2], the Indirect immunofluorescence (% positive cells), inhibitor supernatant 1:4 (% positive cells) is 26.8 and 36.1; the Reverse transcriptase (cpm/ml × 10^5), inhibitor supernatant 1:4 is 992000 cpm/ml and 1.13e+06 cpm/ml; the Reverse transcriptase (cpm/ml × 10^5), inhibitor supernatant undil. was 14000 cpm/ml and 23000 cpm/ml.
